Measurements: the Immune Epitope Database (IEDB)

Key:
HLA-A*68:02 [1] = assay: IEDB peptide-MHC binding, purified MHC/competitive/radioactivity; ≥ and ≤ were set here for values at or beyond the usual limits of such assays
HLA-A*02:01 [2] = assay: as above
HLA-A*02:02 [3] = assay: as above
HLA-A*02:06 [4] = assay: as above
HLA-A*02:03 [5] = assay: IEDB peptide-MHC binding, cellular MHC/competitive/fluorescence; ≥ and ≤ were set here for values at or beyond the usual limits of such assays
HLA-A*02:03 [6] = assay: IEDB peptide-MHC binding, purified MHC/competitive/radioactivity; ≥ and ≤ were set here for values at or beyond the usual limits of such assays; details: source organism: Vaccinia virus WR
HLA-A*68:02 [7] = assay: IEDB peptide-MHC binding, cellular MHC/competitive/fluorescence; ≥ and ≤ were set here for values at or beyond the usual limits of such assays; details: source organism: Vaccinia virus WR
HLA-A*02:01 [8] = assay: as above
HLA-A*02:02 [9] = assay: as above; details: source organism: Vaccinia virus WR
HLA-A*02:06 [10] = assay: as above; details: source organism: Vaccinia virus WR
[11] = source organism: Mammarenavirus choriomeningitidis
[12] = source organism: Vaccinia virus WR
[13] = source organism: Mammarenavirus brazilense
[14] = source organism: Mammarenavirus whitewaterense

With MSCDDVVFGI the IC50 (HLA-A*68:02 [1]; [11]) was 0.054 µM, the IC50 (HLA-A*02:01 [2]; [11]) was 1.01 µM and the IC50 (HLA-A*02:02 [3]; [11]) was 1.05 µM. The IC50 (HLA-A*02:06 [4]; [11]) was 0.25 µM and the IC50 (HLA-A*02:03 [5]; [11]) was 12.1 µM.

IAGGVCYYLL showed an IC50 (HLA-A*68:02 [1]; [12]) of 0.268 µM, an IC50 (HLA-A*02:01 [2]; [12]) of 0.174 µM and an IC50 (HLA-A*02:02 [3]; [12]) of 4.58 µM. For the same sequence, the IC50 (HLA-A*02:06 [4]; [12]) was 0.656 µM and the IC50 (HLA-A*02:03 [5]; [12]) was 14.6 µM.

In the case of LISSDGARVI, the IC50 (HLA-A*02:03 [6]) is reported as 1.15 µM, the IC50 (HLA-A*68:02 [7]) is reported as 17.9 µM and the IC50 (HLA-A*02:01 [8]; [12]) is reported as 12.7 µM. It also gave an IC50 (HLA-A*02:02 [9]) of 7.18 µM and an IC50 (HLA-A*02:06 [10]) of 34.9 µM.

QMYRKFSRCT showed an IC50 (HLA-A*02:03 [6]) of 2.27 µM, an IC50 (HLA-A*68:02 [7]) of 48.2 µM and an IC50 (HLA-A*02:01 [8]; [12]) of 27.1 µM. For the same sequence, the IC50 (HLA-A*02:02 [9]) was 25.7 µM and the IC50 (HLA-A*02:06 [10]) was 14.7 µM.

In the case of SVDIETAIRA, the IC50 (HLA-A*68:02 [1]; [12]) is reported as 0.834 µM, the IC50 (HLA-A*02:02 [3]; [12]) is reported as 2.83 µM and the IC50 (HLA-A*02:06 [4]; [12]) is reported as 1.03 µM. The IC50 (HLA-A*02:01 [8]; [12]) was 5.14 µM and the IC50 (HLA-A*02:03 [5]; [12]) was 7.62 µM.

In the case of VTKRDESSI, the IC50 (HLA-A*02:03 [6]) is reported as 2.14 µM, the IC50 (HLA-A*68:02 [7]) is reported as 8.1 µM and the IC50 (HLA-A*02:01 [8]; [12]) is reported as no less than 70 µM. The IC50 (HLA-A*02:02 [9]) was 8.05 µM and the IC50 (HLA-A*02:06 [10]) was 38.1 µM.

IIYSKAGNI was tested, and the IC50 (HLA-A*02:03 [6]) was 0.013 µM, the IC50 (HLA-A*68:02 [7]) was 5.39 µM and the IC50 (HLA-A*02:01 [8]; [12]) was 50.7 µM. It also gave an IC50 (HLA-A*02:02 [9]) of 9.76 µM and an IC50 (HLA-A*02:06 [10]) of 13.7 µM.

Work on ITVGMLIYSM yielded an IC50 (HLA-A*68:02 [1]; [12]) of 0.611 µM, an IC50 (HLA-A*02:01 [2]; [12]) of 0.167 µM and an IC50 (HLA-A*02:02 [3]; [12]) of 0.047 µM. The IC50 (HLA-A*02:06 [4]; [12]) was 0.097 µM and the IC50 (HLA-A*02:03 [5]; [12]) was 6.11 µM.

Sequence TTPLISFFGL has an IC50 (HLA-A*68:02 [1]; [12]) of 0.198 µM, an IC50 (HLA-A*02:02 [3]; [12]) of 5 µM and an IC50 (HLA-A*02:06 [4]; [12]) of 3.36 µM. The IC50 (HLA-A*02:01 [8]; [12]) was 27.3 µM and the IC50 (HLA-A*02:03 [5]; [12]) was 17.6 µM.

For YCNYSKFWYL, the IC50 (HLA-A*68:02 [1]; [11]) was 0.925 µM, the IC50 (HLA-A*02:01 [2]; [11]) was 1.71 µM and the IC50 (HLA-A*02:02 [3]; [11]) was 1.11 µM. It also gave an IC50 (HLA-A*02:06 [4]; [11]) of 1.06 µM and an IC50 (HLA-A*02:03 [5]; [11]) of 9.64 µM.

With SNPNLFWAV the IC50 (HLA-A*68:02 [1]; [13]) was 0.079 µM, the IC50 (HLA-A*02:01 [2]; [13]) was 1.46 µM and the IC50 (HLA-A*02:02 [3]; [13]) was 0.17 µM. For the same sequence, the IC50 (HLA-A*02:06 [4]; [13]) was 0.035 µM and the IC50 (HLA-A*02:03 [5]; [13]) was 6.16 µM.

Sequence CVDHPFIYVI has an IC50 (HLA-A*68:02 [1]; [12]) of 0.791 µM, an IC50 (HLA-A*02:01 [2]; [12]) of 2.89 µM and an IC50 (HLA-A*02:02 [3]; [12]) of 0.964 µM. The IC50 (HLA-A*02:06 [4]; [12]) was 1.61 µM and the IC50 (HLA-A*02:03 [5]; [12]) was 10.8 µM.

In the case of FSAVISGSV, the IC50 (HLA-A*68:02 [1]; [14]) is reported as 0.0026 µM, the IC50 (HLA-A*02:01 [2]; [14]) is reported as 0.083 µM and the IC50 (HLA-A*02:02 [3]; [14]) is reported as 0.048 µM. It also gave an IC50 (HLA-A*02:06 [4]; [14]) of 0.161 µM and an IC50 (HLA-A*02:03 [5]; [14]) of 14.1 µM.

With FLVLIMLII the IC50 (HLA-A*68:02 [1]; source organism: SARS-CoV1) was 2.57 µM, the IC50 (HLA-A*02:01 [2]; source organism: SARS-CoV1) was 2.3 µM and the IC50 (HLA-A*02:02 [3]; source organism: SARS-CoV1) was 1.63 µM. It also gave an IC50 (HLA-A*02:06 [4]; source organism: SARS-CoV1) of 1.35 µM and an IC50 (HLA-A*02:03 [5]; source organism: SARS-CoV1) of 9.73 µM.

Sequence MSPALFFTFL has an IC50 (HLA-A*68:02 [1]; [13]) of 0.102 µM, an IC50 (HLA-A*02:02 [3]; [13]) of 0.547 µM and an IC50 (HLA-A*02:06 [4]; [13]) of 0.834 µM. For the same sequence, the IC50 (HLA-A*02:01 [8]; [13]) was 6.38 µM and the IC50 (HLA-A*02:03 [5]; [13]) was 7.64 µM.

ALYYVHSLL was tested, and the IC50 (HLA-A*68:02 [1]; [12]) was 0.598 µM, the IC50 (HLA-A*02:01 [2]; [12]) was 0.229 µM and the IC50 (HLA-A*02:02 [3]; [12]) was 0.026 µM. The IC50 (HLA-A*02:06 [4]; [12]) was 3.26 µM and the IC50 (HLA-A*02:03 [5]; [12]) was 15 µM.
